Measurements published in patent US10149922B1, “Engineered collagen matrices for myocardial therapy” (The Board of Trustees of the Leland Stanford Junior …, priority 2012, dated 2018).

B1: Fstl1: Secreted glycoprotein encoded by the FSTL1 gene (SEQ ID NO: 1, UniProt Q12841); recombinant protein purchased from ADIPO BIOSCIENCE (protein, listed as Homo sapiens)
chain: MWKRWLALALALVAVAWVRAEEELRSKSKICANVFCGAGRECAVTEKGEPTCLCIEQCKPHKRPVCGSNGKTYLNHCELHRDACLTGSKIQVDYDGHCKEKKSVSPSASPVVCYQSNRDELRRRIIQWLEAEIIPDGWFSKGSNYSEILDKYFKNFDNGDSRLDSSEFLKFVEQNETAINITTYPDQENNKLLRGLCVDALIELSDENADWKLSFQEFLKCLNPSFNPPEKKCALEDETYADGAETEVDCNRCVCACGNWVCTAMTCDGKNQKGAQTQTEEEMTRYVQELQKHQETAEKTKRVSTKEI

Key:
[1] = test system: FSTL1-induced proliferation of immature cardiomyocytes; assay: Screen of signal transduction inhibitors on FSTL1-induced proliferation; format: cell-based; conditions: EMD StemSelect compound library
Method: (§1) Experiments were conducted to analyze the proliferative response of early cardiomyocytes to FSTL1. 7 days following FSTL1 treatment, we observed that a remarkable 50% of the differentially expressed transcripts are known targets of the JAK/STAT and interferon related (IFR) pathways.

mouse MI model = assay: Route of FSTL1 delivery in the mouse MI model; format: in vivo; conditions: compared to epicardial-localized delivery
Excerpt: Key variables, including time of delivery and the effectiveness following reperfusion. A second critical issue concerns the localized site of FSTL1 delivery. Systemic delivery was not effective in the mouse MI model, compared to epicardial-localized delivery. However, the present the epicardial biomaterial patch itself may provide an effective physical support that could synergize with a systemic FSTL1 delivery. FSTL1 must be delivered epicardial to be effective, and may done by impregnated into the collagen of the patch.

mCM-d2 = assay: phospho-Histone3 proliferation in mCM-d2; format: cell-based, mouse; conditions: mCM-d2 treated for 48 hrs
[2] = test system: Neonate Rat Ventricular Cardiomyocytes (NRVC); assay: Cell cycle profile of neonate rat ventricular cardiomyocytes (flow cytometry); format: cell-based; conditions: NRVC treated for 24 hours
Method: Ventricular cardiomyocytes were isolated with neonatal rat cardiomyocyte isolation kit (Cellutron) and cultured at 37° C. with 5% CO2. In brief, ventricles were dissected from 1-2-d-old Hsd:SD rats (Sprage Dawley), then digested five times for 15 min each with the enzyme cocktail at 37° C. Cells were pooled, preplated for 90 min on an uncoated dish to remove fibroblasts, and plated on 1% gelatin-coated cell culture plastic dishes in high-serum media (DME/F12 [1:1], 0.2% BSA, 3 mM sodium-pyruvate, 0.1 mM ascorbic acid, 4 mg/liter transferrin, 2 mM L-glutamine, and 5 mg/liter ciprofloxacin supplemented with 10% horse serum and 5% FCS) at 3×10^5 cells/cm2. After 24 h, media was changed to low-serum medium (same but with 0.25% FCS) and cultured until use.
The cell cycle profile of cardiac cells was analyzed as described. In brief, cells were fixed for 1 h at 4° C. with 0.25% PFA and then permeabilized for 15 min at 37° C. with 0.2% Tween 20 before incubation with α-actinin and secondary antibodies (Alexa 488—conjugated anti-mouse Ig) diluted 1:100 in FACS buffer (PBS with 1% goat serum and 0.1% NaN3). Cells were then stained with 10 μg/ml propidium iodide in FACS buffer supplemented with 500 μg/ml of RNAase A. Flow cytometry was performed on BD FACSCanto. FlowJo and ModFit software were used to analyze the results.

early cardiomyocytes = assay: Whole transcriptome profiling of early cardiomyocytes after FSTL1 treatment; format: cell-based; conditions: 7 days following FSTL1 treatment
Method: In one approach, whole transcriptome profiling after long and short term treatment is used. Transcriptome profiling is a common approach to gain insight into signaling pathways through the analysis of pathway selective gene expression. Responsive cells selected in the previous experiments are incubated with FSTL1 for 24 hours (short-term) or 7 day (long-term). Transcripts are profiled using microarrays (Affymetrix). Candidate factors are then validated functionally using small molecule inhibitors (if available) and/or siRNA.
as §1

[3] = test system: mESC-derived immature cardiomyocytes (mCM-d2); assay: Kinetic Image Cytometry of rhythmic calcium transients in mCM-d2; format: cell-based, mouse; conditions: 10 ng/ml, eight days of treatment, mCM-d2, KIC analysis
Method: (§2) H2B-mCherry EMCs were maintained in DMEM with 10% FBS and antibiotics/antimycotic. Myh6-Puro^r;Rex-Blast^r mESCs were generated by Lentiviral transduction and Blasticidin selection, and then cultured. For cardiac differentiation, ESCs were cultured in Iscove's Modified Dulbecco Media (IMDM) supplemented with 10% FBS, 2 mM glutamine, 4.5×10^−4 M monothioglycerol, 0.5 mM ascorbic acid, 200 ug/mL transferrin (Roche), 5% protein-free hybridoma media (PFHM-II, Invitrogen) and antibiotics/antimycotic and differentiated as either embryoid bodies (EBs) formation or monolayer. Puromycin was added at differentiation day 10 for two days to enrich cardiomyocyte. The cells were then trypsinized and plated as monolayer cardiomyocytes. Conditioned media were collected after 2 days culturing of confluent EMC cells and passed through 0.22 um filters (Millipore). Control conditioned media were prepared the same way without EMC cells. Recombinant Fstl1 was purchased from ADIPO BIOSCIENCE.
Kinetic Image Cytometer from Vala was used as instructed to record intracellular calcium transient with Fluo4 NW calcium indicator (Life Science). Data was processed using Cyteseer (Vala).

[4] = test system: mESC-derived immature cardiomyocytes (mCM-d2); assay: Number of α-actinin+ cardiomyocytes in mCM-d2 cultures; format: cell-based, mouse; conditions: 10 ng/ml, eight days of treatment
Method: as §2
We utilized an epicardial/mesothelial cell line (EMC) to investigate the interaction between epicardium and myocardium.
We applied 10 ng/ml purified hFstl1 onto the mCM-d2 system of ESC-derived early cardiomyocytes, similarly to the coculture and conditioned media experiments described in FIG. 2.

[5] = test system: mESC-derived immature cardiomyocytes (mCM-d2); assay: Q-RT-PCR of cardiac-specific markers in mCM-d2; format: cell-based, mouse; conditions: 10 ng/ml, eight days of treatment
Method: as §2
Total RNA was extracted with TRIzol (Invitrogen) and reverse transcribed to cDNA with QuantiTect Reverse Transcription Kit (Qiagen) according to the manufacturer's instructions. cDNA samples synthesized from 100 ng of total RNA were subjected to RT-QPCR with LightCycler 480 SYBR Green I Master kit (Roche) performed with LightCycler 480 Real-Time PCR System (Roche).

Molecule	effect on FSTL1-induced proliferation [1]	efficacy of systemic delivery (mouse MI model)	phospho-Histone3+ cells (mCM-d2)	percentage of cells in S/G2/M phase [2]	differentially expressed transcripts that are known targets of the JAK/STAT and interferon related (IFR) pathways (early cardiomyocytes) [%]	increase in the number of cardiomyocytes displaying rhythmic calcium transient [3]	increase in the number of cardiomyocytes [4] [fold]	increase in mRNA content of contractile proteins (including Myh6, Mlc2v, and Mlc2a) [5]
C[C@H](NC(=O)/C(C#N)=C/c1cccc(Br)n1)c1ccccc1 [WP1066]	blocked	–	–	–	–	–	–	–
B1	–	not effective	significantly more	significantly increased	50	7-8 folds	4	2-3 folds
